These results are taken from US5654179A, “Nucleic acid preparation methods” (HRI Research, Inc., priority 1994, dated 1997).

The subject of assay [1] is Taq polymerase. Briefly: Mode III whole blood, globin PCR (KM-29/HRI-12) with inhibitor treatment. The class given is biochemical. The conditions noted are these: 250 μg bovine transferrin, 10 mM sodium bicarbonate; 25,000 to 0 cells; no product without treatment. How it is done: Generally, PCR was carried out using 175-200 μM dNTPS (deoxyribonucleoside 5'-triphosphates) and 0.5 to 1.0 μM primers. Five units/100 μl of Taq polymerase were used. PCR reactions were overlaid with 30-100 μl light mineral oil. A typical PCR cycle for HIV amplification using a Perkin-Elmer Cetus DNA Thermal Cycler (Part No. N8010150) was: denaturation at 95° C. for 30 seconds; annealing at 55° C. for 30 seconds; and extension at 72° C. for 1 minute. PCR cycles were normally carried out in this manner for 35 cycles followed by 7 minutes at 72° C.
In one case, amplification of globin sequences was performed using primer pair KM-29 (SEQ ID NO:10)and HRI-12 (SEQ ID NO:11) to give a 174 bp product within the human beta globin gene.
Whole blood samples were lysed with protease K (500 μg/ml, 55° C. for 1 hour). The enzyme was inactivated by heating (95°-100°C., 10 minutes). Aliquots corresponding to 25,000, 10,000, 5,000, 2,000, 1000, 500 and 0 cells were made. Bovine transferrin (250 μg) was added to each sample as well as the cofactor sodium bicarbonate (adjusted to 10 mM) and the reaction was incubated at room temperature for 30 minutes. Concentrated PCR reagents were then added to each sample to a final volume of 100 μl. […]

Assay [2] deals with Taq polymerase. The experiment in a line: HIV PCR after inhibitor treatment of whole blood lysate. Format: biochemical. The following applies: with cofactor sodium bicarbonate. How it is done: The enzyme was inactivated by heating (95°-100° C., 10 minutes).

B1: Bovine Transferrin: bovine transferrin (protein, UniProt Q29443 20-704, looked up)
Serotransferrin: DPERTVRWCTISTHEANKCASFRENVLRILESGPFVSCVKKTSHMDCIKAISNNEADAVTLDGGLVYEAGLKPNNLKPVVAEFHGTKDNPQTHYYAVAVVKKDTDFKLNELRGKKSCHTGLGRSAGWNIPMAKLYKELPDPQESIQRAAANFFSASCVPCADQSSFPKLCQLCAGKGTDKCACSNHEPYFGYSGAFKCLMEGAGDVAFVKHSTVFDNLPNPEDRKNYELLCGDNTRKSVDDYQECYLAMVPSHAVVARTVGGKEDVIWELLNHAQEHFGKDKPDNFQLFQSPHGKDLLFKDSADGFLKIPSKMDFELYLGYEYVTALQNLRESKPPDSSKDECMVKWCAIGHQERTKCDRWSGFSGGAIECETAENTEECIAKIMKGEADAMSLDGGYLYIAGKCGLVPVLAENYKTEGESCKNTPEKGYLAVAVVKTSDANINWNNLKDKKSCHTAVDRTAGWNIPMGLLYSKINNCKFDEFFSAGCAPGSPRNSSLCALCIGSEKGTGKECVPNSNERYYGYTGAFRCLVEKGDVAFVKDQTVIQNTDGNNNEAWAKNLKKENFEVLCKDGTRKPVTDAENCHLARGPNHAVVSRKDKATCVEKILNKQQDDFGKSVTDCTSNFCLFQSNSKDLLFRDDTKCLASIAKKTYDSYLGDDYVRAMTNLRQCSTSKLLEACTFHKP
For the molecule B1, in the assay with Taq polymerase [1], the “globin PCR product after inhibitor treatment” value is reported as “decreasing product band corresponding to the decreasing amount of cells”.

B2: rat transferrin: transferrin from rat (protein, UniProt P12346 20-698, looked up)
Serotransferrin: VPDKTVKWCAVSEHENTKCISFRDHMKTVLPADGPRLACVKKTSYQDCIKAISGGEADAITLDGGWVYDAGLTPNNLKPVAAEFYGSLEHPQTHYLAVAVVKKGTDFQLNQLQGKKSCHTGLGRSAGWIIPIGLLFCNLPEPRKPLEKAVASFFSGSCVPCADPVAFPQLCQLCPGCGCSPTQPFFGYVGAFKCLRDGGGDVAFVKHTTIFEVLPQKADRDQYELLCLDNTRKPVDQYEDCYLARIPSHAVVARNGDGKEDLIWEILKVAQEHFGKGKSKDFQLFGSPLGKDLLFKDSAFGLLRVPPRMDYRLYLGHSYVTAIRNQREGVCPEGSIDSAPVKWCALSHQERAKCDEWSVSSNGQIECESAESTEDCIDKIVNGEADAMSLDGGHAYIAGQCGLVPVMAENYDISSCTNPQSDVFPKGYYAVAVVKASDSSINWNNLKGKKSCHTGVDRTAGWNIPMGLLFSRINHCKFDEFFSQGCAPGYKKNSTLCDLCIGPAKCAPNNREGYNGYTGAFQCLVEKGDVAFVKHQTVLENTNGKNTAAWAKDLKQEDFQLLCPDGTKKPVTEFATCHLAQAPNHVVVSRKEKAARVSTVLTAQKDLFWKGDKDCTGNFCLFRSSTKDLLFRDDTKCLTKLPEGTTYEEYLGAEYLQAVGNIRKCSTSRLLEACTFHKS
For the molecule B2, in the assay with Taq polymerase [2], the “activity as interfering reagent” value is “does not work as an interfering reagent”.
